Measurements reported in patent WO2018224439A1 (dated 2018).

Legend:
[1] = molecular target: T1, human serum albumin (human, UniProt P02768 25-609); assay: SPR; sc02 against sc01
T1 construct: Coupled by amine chemistry to the SPR chip; also called HSA; human SA

[2] = molecular target: T1, human serum albumin; assay: SPR; sc02 against sc01; this end fits human SA pH 5.5 in Table 3
[3] = molecular target: T2, cynomolgus serum albumin (cynomolgus, UniProt A2V9Z4 25-608); assay: SPR; sc02 against sc01; this end fits cynomolgus SA pH 5.5 in Table 3
T2 construct: also called cynomolgus SA

fold improvement of affinity (STR graft over CDR graft) [1] [fold] | fold improvement of affinity (STR graft over CDR graft) [2] [fold] | fold improvement of affinity (STR graft over CDR graft) [3] [fold] | Binder
~3 | – | – | 23-13-A01-sc02 (scFv, V domains shown, Humanized scFv (STR graft); also called 23-13-A01-sc02 STR; 23-13-A01-SC02 STR) VH: EVQLVESGGGLVQPGGSLRLSCAASGFSFSSSYWICWVRQAPGKGLEWVGCVFTGDGTTYYASWAKGRFTISRDNSKNTVYLQMNSLRAEDTATYFCARPVSVYYYGMDLWGQGTLVTVSS VL: DVVMTQSPSSLSASVGDRVTITCQASQIISSRSAWYQQKPGQPPKLLIYQASKLASGVPSRFSGSGSGTDFTLTISSLQPEDFATYYCQCTYIDSNFGAFGGGTKLTVLG
– | 20 to 300 | 20 to 300 | 19-01-H04-sc02 (scFv, V domains shown, Humanized scFv (STR graft); also called 19-01-H04-sc02 STR; 19-01-H04-SC02 STR) VH: EVQLVESGGGLVQPGGSLRLSCAASGFSLSSNAMGWVRQAPGKGLEYIGIISVGGFTYYASWAKGRFTISRDNSKNTVYLQMNSLRAEDTATYFCARDRHGGDSSGAFYLWGQGTLVTVSS VL: DIQMTQSPSSLSASVGDRVTITCQSSESVYSNNQLSWYQQKPGQPPKLLIYDASDLASGVPSRFSGSGSGTDFTLTISSLQPEDFATYYCAGGFSSSSDTAFGGGTKLTVLG
